{
  "source": "patent US20210140973A1",
  "about": "(NITTO BOSEKI, published 2021)",
  "key": {"[1]": {"target": "T1, GST-tagged peptide H3 (positions 1 to 220 of the human IgG4 heavy chain constant region) (human, UniProt P01861 1-220 = IgG part)", "T1 construct": "E. coli lysate on Western blot; not shown: GST tag (glutathione S-transferase) linked to the N terminal, expressed from vector pGEX-6P-1", "T1 sequence (P01861 1-220)": "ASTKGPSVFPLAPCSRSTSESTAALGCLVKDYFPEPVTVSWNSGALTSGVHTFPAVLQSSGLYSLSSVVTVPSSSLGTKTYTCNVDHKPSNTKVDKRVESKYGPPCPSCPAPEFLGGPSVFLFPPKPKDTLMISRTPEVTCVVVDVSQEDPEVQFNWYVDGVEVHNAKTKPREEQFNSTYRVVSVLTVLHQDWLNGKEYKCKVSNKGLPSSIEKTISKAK", "assay": "Western blot: E. coli lysate with the GST-tagged peptide, SDS-PAGE, PVDF membrane, POD-labelled antibody diluted 1000-fold, ECL"}, "[2]": {"target": "T2, GST-tagged peptide H4 (positions 1 to 165 of the human IgG4 heavy chain constant region) (human, UniProt P01861 1-165 = IgG part)", "T2 construct": "E. coli lysate on Western blot; not shown: GST tag (glutathione S-transferase) linked to the N terminal, expressed from vector pGEX-6P-1", "T2 sequence (P01861 1-165)": "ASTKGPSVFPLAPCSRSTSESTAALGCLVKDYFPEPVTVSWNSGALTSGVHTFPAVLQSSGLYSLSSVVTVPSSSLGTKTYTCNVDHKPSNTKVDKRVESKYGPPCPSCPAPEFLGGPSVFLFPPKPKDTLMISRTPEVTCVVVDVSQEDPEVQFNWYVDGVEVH", "assay": "Western blot: E. coli lysate with the GST-tagged peptide, SDS-PAGE, PVDF membrane, POD-labelled antibody diluted 1000-fold, ECL"}, "[3]": {"target": "T3, GST-tagged peptide H5 (positions 1 to 110 of the human IgG4 heavy chain constant region) (human, UniProt P01861 1-110 = IgG part)", "T3 construct": "E. coli lysate on Western blot; not shown: GST tag (glutathione S-transferase) linked to the N terminal, expressed from vector pGEX-6P-1", "T3 sequence (P01861 1-110)": "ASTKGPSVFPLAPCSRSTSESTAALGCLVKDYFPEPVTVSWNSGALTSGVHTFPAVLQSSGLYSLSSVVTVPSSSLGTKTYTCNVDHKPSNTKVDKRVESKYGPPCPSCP", "assay": "Western blot: E. coli lysate with the GST-tagged peptide, SDS-PAGE, PVDF membrane, POD-labelled antibody diluted 1000-fold, ECL"}, "[4]": {"target": "T4, GST-tagged peptide H8 (positions 111 to 327 of the human IgG4 heavy chain constant region) (human, UniProt P01861 111-325 = IgG part)", "T4 construct": "E. coli lysate on Western blot; not shown: GST tag (glutathione S-transferase) linked to the N terminal, expressed from vector pGEX-6P-1", "T4 sequence (P01861 other isoform, or with tags, fused parts or gaps)": "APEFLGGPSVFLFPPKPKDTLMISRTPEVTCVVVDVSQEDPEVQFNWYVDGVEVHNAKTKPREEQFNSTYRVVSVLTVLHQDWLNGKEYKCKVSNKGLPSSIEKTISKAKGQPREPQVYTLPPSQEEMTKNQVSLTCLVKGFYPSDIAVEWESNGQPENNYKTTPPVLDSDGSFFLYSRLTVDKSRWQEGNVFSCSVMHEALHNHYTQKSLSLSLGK", "assay": "Western blot: E. coli lysate with the GST-tagged peptide, SDS-PAGE, PVDF membrane, POD-labelled antibody diluted 1000-fold, ECL"}, "[5]": {"target": "T5, GST-tagged peptide H31 (H10 with arginine for glutamine at position 235) (human, UniProt P01861 221-325 = IgG part)", "T5 construct": "not shown: GST tag (glutathione S-transferase) linked to the N terminal, expressed from vector pGEX-6P-1", "T5 chain": "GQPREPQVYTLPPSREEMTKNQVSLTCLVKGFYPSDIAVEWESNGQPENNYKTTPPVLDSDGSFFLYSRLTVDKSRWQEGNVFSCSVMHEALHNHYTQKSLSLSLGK", "assay": "Western blot: E. coli lysate with the GST-tagged peptide, SDS-PAGE, PVDF membrane, POD-labelled antibody diluted 1000-fold, ECL"}, "[6]": {"target": "T6, GST-tagged peptide H32 (H10 with lysine for arginine at position 289) (human, UniProt P01861 221-325 = IgG part)", "T6 construct": "not shown: GST tag (glutathione S-transferase) linked to the N terminal, expressed from vector pGEX-6P-1", "T6 chain": "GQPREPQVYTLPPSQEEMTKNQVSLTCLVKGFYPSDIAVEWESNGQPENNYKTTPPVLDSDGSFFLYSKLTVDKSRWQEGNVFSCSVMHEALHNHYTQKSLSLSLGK", "assay": "Western blot: E. coli lysate with the GST-tagged peptide, SDS-PAGE, PVDF membrane, POD-labelled antibody diluted 1000-fold, ECL"}, "[7]": {"target": "T7, GST-tagged peptide H37 (H10 with R289K and L325P) (human, UniProt P01861 221-324 = IgG part)", "T7 construct": "not shown: N-terminal GST tag (from vector pGEX-6P-1) and any vector linker", "T7 chain": "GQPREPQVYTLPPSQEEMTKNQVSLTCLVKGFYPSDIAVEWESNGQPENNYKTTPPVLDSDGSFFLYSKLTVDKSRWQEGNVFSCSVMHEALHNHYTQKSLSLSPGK", "assay": "Western blot: E. coli lysate with the GST-tagged peptide, SDS-PAGE, PVDF membrane, POD-labelled antibody diluted 1000-fold, ECL"}, "[8]": {"target": "T8, Myeloma human IgG4 (EMD Millipore) (human)", "T8 construct": "Bought myeloma protein", "T8 sequence (constant, as listed by the source limits assumed)": "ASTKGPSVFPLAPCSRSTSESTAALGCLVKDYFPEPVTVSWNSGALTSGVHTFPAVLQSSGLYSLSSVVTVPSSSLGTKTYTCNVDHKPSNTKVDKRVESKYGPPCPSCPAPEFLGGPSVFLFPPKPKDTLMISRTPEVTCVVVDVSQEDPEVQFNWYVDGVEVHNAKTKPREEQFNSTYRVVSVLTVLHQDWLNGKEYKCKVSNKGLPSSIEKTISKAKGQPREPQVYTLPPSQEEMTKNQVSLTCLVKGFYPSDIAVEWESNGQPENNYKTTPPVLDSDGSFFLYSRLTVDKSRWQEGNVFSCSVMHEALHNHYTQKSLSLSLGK", "assay": "latex agglutination inhibition; 3000 mg/dL myeloma protein as free sample against IgG4-sensitized latex, read on the IgG4 calibration curve", "method": "(§1) In a case where the MaI4-08-produced antibody or the MaI4-09-produced antibody was used as an anti-human IgG4 mouse monoclonal antibody in the first reagent, specificity to human IgG4 was evaluated. As a sample, Myeloma human IgG4 solution (EMD Millipore) adjusted to 3000 mg/dL was used. In addition, as control samples, Myeloma human IgG1 solution (EMD Millipore), Myeloma human IgG2 solution (EMD Millipore), and Myeloma human IgG3 solution (Sigma-Aldrich Co. LLC) prepared similarly to the above were used. A saline solution was used as a blank sample. For the measurement of human IgG4 concentrations, 120 μL of the first reagent and 120 μL of the second reagent were reacted with 3 μL of a sample using Hitachi type 7180 automatic analyzer, and change amount of absorbance in the range of photometric points of 18 to 28 (corresponding to 1 minute to 4 minutes after addition of R2) was measured at a main wavelength of 570 nm and a complementary wavelength of 800 nm by a two-point end method (n=2). A calibration curve was created from the results of Table 8 and the human IgG4 concentration in a sample was calculated therefrom."}, "[9]": {"target": "T9, Myeloma human IgG1 (EMD Millipore) (human)", "T9 construct": "Bought myeloma protein", "T9 sequence (constant, as listed by the source limits assumed)": "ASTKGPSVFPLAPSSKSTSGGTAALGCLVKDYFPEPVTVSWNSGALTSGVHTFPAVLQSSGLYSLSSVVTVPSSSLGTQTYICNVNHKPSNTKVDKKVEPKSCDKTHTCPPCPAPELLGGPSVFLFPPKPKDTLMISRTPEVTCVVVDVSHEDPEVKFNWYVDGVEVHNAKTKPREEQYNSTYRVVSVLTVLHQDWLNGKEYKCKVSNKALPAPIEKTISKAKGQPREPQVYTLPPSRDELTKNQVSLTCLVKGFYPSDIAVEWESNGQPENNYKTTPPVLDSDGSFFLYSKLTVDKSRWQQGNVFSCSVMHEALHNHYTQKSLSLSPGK", "assay": "latex agglutination inhibition; 3000 mg/dL myeloma protein as free sample against IgG4-sensitized latex, read on the IgG4 calibration curve", "method": "as §1"}, "[10]": {"target": "T10, Myeloma human IgG3 (Sigma-Aldrich Co. LLC) (human)", "T10 construct": "Bought myeloma protein", "T10 sequence (constant, as listed by the source limits assumed)": "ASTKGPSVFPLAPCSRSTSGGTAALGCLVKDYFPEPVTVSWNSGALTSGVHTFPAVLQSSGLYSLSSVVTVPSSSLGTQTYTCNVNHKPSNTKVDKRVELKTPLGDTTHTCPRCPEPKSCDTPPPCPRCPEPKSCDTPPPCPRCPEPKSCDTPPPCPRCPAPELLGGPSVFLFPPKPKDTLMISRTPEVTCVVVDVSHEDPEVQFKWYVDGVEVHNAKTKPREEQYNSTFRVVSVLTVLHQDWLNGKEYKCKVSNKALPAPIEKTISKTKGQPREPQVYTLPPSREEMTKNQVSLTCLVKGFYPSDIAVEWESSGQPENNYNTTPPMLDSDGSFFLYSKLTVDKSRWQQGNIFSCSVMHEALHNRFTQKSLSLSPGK", "assay": "latex agglutination inhibition; 3000 mg/dL myeloma protein as free sample against IgG4-sensitized latex, read on the IgG4 calibration curve", "method": "as §1"}},
  "data": [
    {"binder": "MaI4-08-produced antibody (antibody, IgG1, V domains shown, Purified on protein G from hybridoma culture supernatant; POD-labelled for the Western blots) VH: EVQLQQSGPELVKPGTSVKMSCKASGYIFTSYILHWVKQKPGQGLEWIAYINPYNDGTKYKEKFKGKGTLTSDKSSSTAYMELSSLTSEDSAVYYCARSGGGYGNYAWFAYWGPGTLVTVST VL: DIQMTQSPSSLSASLGERVSLTCRASQDIGSSLNWLQQEPDGTIKRLIYATSSLDSGVPKRFSGSRSGSDYSLTISSLESEDFVDYYCLQYASYPPTFGAGTKLELK", "values": [
      {"measurement": "binding result", "setting": "[1]", "value": "no binding"},
      {"measurement": "binding result", "setting": "[2]", "value": "no binding"},
      {"measurement": "binding result", "setting": "[3]", "value": "no binding"},
      {"measurement": "binding result", "setting": "[4]", "value": "binds"},
      {"measurement": "binding result", "setting": "[5]", "value": "binds"},
      {"measurement": "binding result", "setting": "[6]", "value": "binds"},
      {"measurement": "binding result", "setting": "[7]", "value": "binds"},
      {"measurement": "Measured value (apparent human IgG4 concentration)", "setting": "[8]", "value": 1090, "unit": "mg/dL"},
      {"measurement": "Measured value (apparent human IgG4 concentration)", "setting": "[9]", "value": 10.1, "unit": "mg/dL"},
      {"measurement": "Measured value (apparent human IgG4 concentration)", "setting": "[10]", "value": 4.1, "unit": "mg/dL"}
    ]}
  ]
}
